Target: VEGFR2 (vascular endothelial growth factor receptor 2), expressed from plasmid in HEK293 cells, P35968
Sequence (P35968 20-1356): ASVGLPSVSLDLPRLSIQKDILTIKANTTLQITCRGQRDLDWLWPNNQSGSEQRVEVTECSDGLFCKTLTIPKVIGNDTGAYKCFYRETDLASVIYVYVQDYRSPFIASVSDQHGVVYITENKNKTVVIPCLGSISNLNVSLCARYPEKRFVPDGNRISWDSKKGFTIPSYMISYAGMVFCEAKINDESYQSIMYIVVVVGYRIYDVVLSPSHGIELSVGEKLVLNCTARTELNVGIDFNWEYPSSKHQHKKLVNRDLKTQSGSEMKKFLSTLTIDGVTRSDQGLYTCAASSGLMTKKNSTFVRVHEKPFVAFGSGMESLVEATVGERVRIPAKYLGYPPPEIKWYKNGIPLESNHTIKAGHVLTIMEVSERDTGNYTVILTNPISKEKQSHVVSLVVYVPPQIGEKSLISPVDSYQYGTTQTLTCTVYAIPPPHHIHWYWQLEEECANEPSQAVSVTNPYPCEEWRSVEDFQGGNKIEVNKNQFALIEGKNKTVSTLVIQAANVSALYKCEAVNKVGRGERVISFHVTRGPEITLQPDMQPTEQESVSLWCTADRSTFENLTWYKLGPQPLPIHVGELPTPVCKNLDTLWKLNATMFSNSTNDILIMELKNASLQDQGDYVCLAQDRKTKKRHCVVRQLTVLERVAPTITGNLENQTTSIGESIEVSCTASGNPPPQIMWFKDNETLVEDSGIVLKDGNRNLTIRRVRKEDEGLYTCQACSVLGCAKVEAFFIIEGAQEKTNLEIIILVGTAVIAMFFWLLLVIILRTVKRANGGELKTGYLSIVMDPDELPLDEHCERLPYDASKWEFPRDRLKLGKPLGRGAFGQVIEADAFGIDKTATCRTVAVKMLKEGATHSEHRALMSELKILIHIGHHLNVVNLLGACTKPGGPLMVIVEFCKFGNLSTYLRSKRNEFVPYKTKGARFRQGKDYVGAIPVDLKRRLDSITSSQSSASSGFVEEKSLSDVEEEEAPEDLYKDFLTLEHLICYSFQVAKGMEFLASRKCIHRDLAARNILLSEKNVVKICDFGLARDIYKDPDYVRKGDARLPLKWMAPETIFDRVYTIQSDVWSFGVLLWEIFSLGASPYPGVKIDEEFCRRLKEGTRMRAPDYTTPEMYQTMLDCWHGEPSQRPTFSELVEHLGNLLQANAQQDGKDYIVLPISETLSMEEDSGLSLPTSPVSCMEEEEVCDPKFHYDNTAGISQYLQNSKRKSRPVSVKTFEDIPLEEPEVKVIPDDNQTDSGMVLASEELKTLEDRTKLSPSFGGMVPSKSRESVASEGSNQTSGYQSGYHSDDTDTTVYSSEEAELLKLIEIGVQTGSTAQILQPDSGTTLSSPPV

B1: recombinant, purified TCPTP (T-cell protein tyrosine phosphatase) (protein)
chain: MPTTIEREFEELDTQRRWQPLYLEIRNESHDYPHRVAKFPENRNRNRYRDVSPYDHSRVKLQNAENDYINASLVDIEEAQRSYILTQGPLPNTCCHFWLMVWQQKTKAVVMLNRIVEKESVKCAQYWPTDDQEMLFKETGFSVKLLSEDVKSYYTVHLLQLENINSGETRTISHFHYTTWPDFGVPESPASFLNFLFKVRESGSLNPDHGPAVIHCSAGIGRSGTFSLVDTCLVLMEKGDDINIKQVLLNMRKYRMGLIQTPDQLRFSYMAIIEGAKCIKGDSSIQKRWKELSKEDLSPAFDHSPNKIMTEKYNGNRIGLEEEKLTGDRCTGLSSKMQDTMEENSESALRKRIREDRKATTAQKVQQMKQRLNENERKRKRPRLTDT
  in vitro dephosphorylation of VEGFR2 tyrosines 996, 1175 and 1214: TCPTP showed a striking specificity to two tyrosine residues studied (Y1214 and Y996), while tyrosine 1175 was not a TCPTP target
  in vitro dephosphorylation of isolated VEGFR2 (immunoblot with phospho-specific VEGFR2 antibodies): purified, recombinant TCPTP was able to dephosphorylate isolated VEGFR2 in vitro
